Measurements: the nanobody polyreactivity screen of Harvey et al. (2022)

Test: yeast display, Sf9 membrane polyspecificity reagent, FACS + sequencing; frameworks hold sequencing errors
Summary of the method: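 Polyreactivity labels are assigned by the sorting gate from which each nanobody was recovered. The gates were low and high (top ~1%), set on anti-HA fluorescence for expression and streptavidin fluorescence for reagent binding. Before sorting, galactose-induced (36–48 hours) yeast display cells were stained for 1 hour at 4 °C with 10% biotinylated, detergent-solubilized Sf9 membrane reagent.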
With “QVQLVESGGGLVQAGGSLRLSCAASGRIFRVNAMGWYRQAPGKERELVASITKSTGSTYYADSVKGRFTISRDNAKNTVYLQMNSLKPEDTAVYYCAKAASYPVRAFYYWGQGTQVTVSS” the “polyreactivity (PSR sort gate)” value was “high polyreactivity”.
In the case of “QVQLVESGGGLVQAGGSLRLSCAASGNIFDVYAMGWYRQAPGKERELVADIDRGGTTYADSVKGRFTISRDNAKNTVYLQMNSLKPVDTAVYYCAADYVQGFGFYYQWLYDYWGQGTQVTVSS”, the “polyreactivity (PSR sort gate)” value is reported as “low polyreactivity”.
For “QVQLVESGGGLLQAGGSLRLSCAASGRTFYVYAMGWYRQAPGKEREFVAAIDWGGGTTYYADSVKGRFTISRDNAKNNVYLQMNCLKPEDTAVYYCNAAYTDRFYYWGQGTQVTVSS”, the “polyreactivity (PSR sort gate)” value was “high polyreactivity”.
For “QVQLVESGGCLVQAGGSLRLSCAASGSTFTSNAMGWYRQAAGKEWQFVAAISFGGGITYDADSVKGRFTISRDNAKNTVSLQMNSLKPEDTAVYYCAADGEYPHSEDFEYWGQGTQGTVSS”, the “polyreactivity (PSR sort gate)” value was “low polyreactivity”.
For “QVQLVESGGGLVQAGGSLRLSCAASGRISRSNTMGWYRQGPGKERELVAAISRGGGSTYYADSVKGRFTISRDNAKNTVYLQMNSLKPEDTAVDYCAKAFRGHYWRQGTQVTVSS”, the “polyreactivity (PSR sort gate)” value was “high polyreactivity”.
For “QVQLVESGGGLVQAGGSLRLSCAASGSIFLWYDMGWYRQAPGKERECVASITRSGGSTYYADSVKGRFTISRDNAKNTVYLQMNSLKPEDTAVYYCAASGATGRYSVYYHGYTYDYWGQGTQVTVSS”, the “polyreactivity (PSR sort gate)” value was “low polyreactivity”.
For “QVKLVESGGGLVQAGGSLRLSCAASGFTFDKYAMGWSRPEPGKERELVATISRRGGSTYYADSVKGRFTISRDNAKNTVYLQMNSLKPEDTAVYYCAKVRYYYSPYREFDYCGQGTQVTVSS”, the “polyreactivity (PSR sort gate)” value was “high polyreactivity”.
In the case of “HVQLLESGGGLLQAGGSLRLSCMASGSILRDRMSWYLQAPGKEHELVATIYDGGITYYADSMKGRFTISRDNAKNTVYLQMNSLRPEDTAVYYCGASFEGYRYHVYCGQGTQVTVSS”, the “polyreactivity (PSR sort gate)” value is reported as “low polyreactivity”.
In the case of “QVQLVESGGGLVQAGGSLRLSCAASGRIFQTYAMGWYRQAPGNERELVARIRLSGGSTYYADSVKGRFTISRDNAKNTVYLQMNRLKPEATAVYYCAALYSRARFTDPYYYWGQGTQVTVSS”, the “polyreactivity (PSR sort gate)” value is reported as “high polyreactivity”.
With “QVQLVESGAGLVQAGGSLRLSCAASGSIFVQYAMGWSRQAPRNERELVAGISSIGGSTYYADSVKGRFTLSRDNSKNSVYLQMNSLKPEDTAVYYCAKRWRSSYRIGHDYWRQGTQVTVSS” the “polyreactivity (PSR sort gate)” value was “low polyreactivity”.
For “QVQLVESGGGLVQAGGSLRLSCAASGRIFRSYAMGWYRQAPGKERELVAAISYSGGSTYYADSVKGRFTISRDNAKNTVYLQMNSLKPEDTAVYYCAALPGERKYIYYGYDYWGQGTQVTVSS”, the “polyreactivity (PSR sort gate)” value was “high polyreactivity”.
For “QVQLVESGGGLVQAGGSLRLSCAASGFSVYPYAMGWYRQAPGKERELVAAISSSGGSTYYADSVKGRFTISRDNAKNTVYLQMNSLKPEDTAVYYCNKRPQQYRPGYDYWGQGTQVTVSS”, the “polyreactivity (PSR sort gate)” value was “high polyreactivity”.
With “QVQLLESGGGLVQAGGSLRLICAASGRIIYGYAMGWYRQAPGKERELVAAITATYYADSVKGRFTISRDNAKNTVYLQMKSLKPVDSGVYYCNAYLSPKQPLSTPDPSFEGGYWGQGTQVTVSS” the “polyreactivity (PSR sort gate)” value was “low polyreactivity”.
For “QVQLVESGGGLVQAGGSLRLSCAASGRTFGKYAMGWYRQAPGKEREFVAAISRSGGNTYYADSVKGRFTISRDNAKNTVYLQMNSLKPEDTAVYYCAAKGFFYYWGQGTQVTVSS”, the “polyreactivity (PSR sort gate)” value was “high polyreactivity”.
In the case of “QVQLVESGGGLVQAGGSLRLSCAASGRTFRYNTMGWYRQAPGKERELVARINWSGGSTYYADSVKGRFTISRDNAKNTVYLQMNSLKPEDTAVYYCAAVPILVYRWFQSYTGDYDYWGQGTQVTVSS”, the “polyreactivity (PSR sort gate)” value is reported as “low polyreactivity”.
In the case of “QVHLVESGGGLVQAGGSLRLSCAASGFLFRTYAMGWYRPGPGKERELVDAISNDANTKYADSVKGRFTISRDNAKNTVYLQMNSLKPEDTAVYYGAAKAIYRGRYLKIVKVGYWGQGTQVTVSS”, the “polyreactivity (PSR sort gate)” value is reported as “high polyreactivity”.
For “QVQLVESVGGLVQAGGSLRLSCAASGSIYRSYTMGWYRQAPRKEREFVAAITKRGGSTYYADSVKGRFTISRDNAKNTVYLQMISLKPEDTAVYYCAAVAGHYYYFRELGYWGQGTQVTVSS”, the “polyreactivity (PSR sort gate)” value was “high polyreactivity”.
With “QVQLVESGGGLVQAGGSLRLTCAASGFIFSKNAMGWYRQPPGKERELVAAIDTSGSSTYYAYSVKGRFTISRDNAKNSVYLQMISLKPEDTAVYYCNRDDYFFSRFDYWGQGTQVTVTS” the “polyreactivity (PSR sort gate)” value was “low polyreactivity”.
In the case of “QVQLVESGGGLVQAGGSLRLSCAASGNTFHSYVMGWYRQAPGKERELVAAITSGGSTYYADSVKGRFTISRDNAKNTVYLQMNSLKPEDTAVYYCAVDAWTGESYWEHYYWGQGTQVTVSS”, the “polyreactivity (PSR sort gate)” value is reported as “low polyreactivity”.
For “QVQLVESVGGLVQAGGSLRLSCAASGFIFGYNAMGWYRQAPGKERELVAAIDSGDSTYYADSVKGRFTISRDNAKNTVYLQMNSLKPEDTAVYFCATDVTFVYDFGYFQYDYWGQGTQVTVSS”, the “polyreactivity (PSR sort gate)” value was “low polyreactivity”.
With “QVQLVESGGCLVQAGCSLRLSCAASGRIFGYYVMGWYRQAPGKERELVAAIRSSADSTYYADSVKGRFTISRDNAKNTVYLQMNSLKPEDTAVYYCAAQSPAYYTKSYWGQGTQVTVSS” the “polyreactivity (PSR sort gate)” value was “low polyreactivity”.
For “QVQLVESGGGLVQAGGSLRLSCAASGRTFGSNAMGWYRQAPGKERELVAAITSSADSTYYADSVKGRFTISRDNAKNTVYLQMNSLKPEDTAVYYCATDQGGYYENDYWGQGTQVTVSS”, the “polyreactivity (PSR sort gate)” value was “low polyreactivity”.
For “QVQLEESGGGLVQAGGSLRLSCAAYGGIFKQYAMGWYRQAPGKETELVAAITWSGGSTYYADSVKGRFTISRDNAKTTVSLQMNSLKPEDTAVYYCAKDYVVFQYVDFQDDDYWGQGTQVSVSS”, the “polyreactivity (PSR sort gate)” value was “low polyreactivity”.
In the case of “QVQLVESGGGLVQAGCSLRLSCAASGRIFTSYAMGWYRQAPGKERELVAAISRSGARTYYADTVKGRFTISRDNAKNTVYLQMNSLKPEDTAVYDCAAVTVAGYDYWGQGTQVTVSS”, the “polyreactivity (PSR sort gate)” value is reported as “high polyreactivity”.
In the case of “QVQLVESGGGLVQAGGSLRLSCAASGLTFWYYVMGWYRQAPGKERELVAAINIGGSTKYAYSVKGRFTISRDNAKNTVYLQMNSLKPEDTAVYYCAAQYYYTGTRSIRSFDYWGQGTQVTVSS”, the “polyreactivity (PSR sort gate)” value is reported as “low polyreactivity”.
For “QVQLVESGGGLVQAGGSLRLSCAASGSIFVPYAMGWYRQAPGKERELDAVITSGGSTYYADSVKGRFSISRDNAKNTVYLQMNSLKPEDTAVYYCNADLYYVWSTLSQFDYWGQGTQVTVSS”, the “polyreactivity (PSR sort gate)” value was “low polyreactivity”.
With “QVQLVESGGGLVQAGGSLRLSSAASGSILWQYAMGWYRQAPGTERELVAAMTYSGGSTHYADSVKGRFTISRDNAKNTVYLQMNSLKPEDTAVYYCAAGYWYRYAALRYDHWGQGTQVTVSS” the “polyreactivity (PSR sort gate)” value was “low polyreactivity”.
For “QVQLVESGGGLDQAGGSLRLSCSASGITFKSYAMGWYTQSPGKEREVVAAISRRGGSTYYADSVKGRFTISRDNAKNTVYLQMNSLKQEDTAVYFFAADSGREPKGPSRLTYWGQGTQVTVSS”, the “polyreactivity (PSR sort gate)” value was “high polyreactivity”.
With “QVQLVESGGGLFQAGGSLRLSCAASGITFKGYTMGWYRQAPGKERELVATISRGGRTYADSVKGRFTISRDNAKNTVLLQMNSLKPEDTAVYYCAADKYWAQNDYWGQGTQVTVSS” the “polyreactivity (PSR sort gate)” value was “low polyreactivity”.
For “QVQLVESGGGLVQAGGSLRLSCAASGSTFVYSAMGWYRQAPGKERELVAAIRNGDGTNYADSVKGRFTISRDNAMNTVYLQMNSLKPEDTAVYYCAAPQGEYFYVYEFDYWGQGTQVTVSS”, the “polyreactivity (PSR sort gate)” value was “low polyreactivity”.
In the case of “QVQLVESGGGLVQAGGSLRLSCAASGRTFVYYAMGWYRQAPGKERELVATISRRGGGTYYADSVKGRFTISRDNEKNTVYLQMNSLKPEDTAVYYCAAAFSYYPRYDYWGQGTQVTVSS”, the “polyreactivity (PSR sort gate)” value is reported as “high polyreactivity”.
In the case of “QVQLVESGGGLVQAGGSLRLSCAASGRTFSAYAMGWYRQAPGKERELVAAITLSVGSTYYADSVKGRFTISRDNAKNTVYLQMNSLKPEDTAVYYCNKYKKGEGGITIVRFDYWGQGTQVTVSS”, the “polyreactivity (PSR sort gate)” value is reported as “low polyreactivity”.
For “QVQLVESGGGLVQAGGSLRLSCAPSRSTLNYYAMGWYRQAPGKERELVAAITWSGGSTSYADSVKGRFTISRDNAKNTVYLQMNSLKPEDTAVYYCATDFPTVQLYDTDWLSSDMGYWGQGTQVTVSS”, the “polyreactivity (PSR sort gate)” value was “low polyreactivity”.
For “QVQLVESGGGLVQAGGSLRLSCAASGSIFRTYTMGWYRQAPGKEREFVAAISRSGGSTYYADSVKGRFTISRDNAKNTVYLQMNSLKPEDTAVYYCNARWGLGSYGYWGQGTQVTVTS”, the “polyreactivity (PSR sort gate)” value was “high polyreactivity”.
In the case of “QVQLVESGGGLVQAGGSLPLSCAASGRTFDANAMGWSRQAPGKERELVAAISSDGSTNYADSVKGRFTISRDNAKNTVYLQMNSLKPEDTAVYYCATDGKPLIRYDYDYWGQGTQVTVSW”, the “polyreactivity (PSR sort gate)” value is reported as “high polyreactivity”.
For “QVQLVESGGGLVQAGGSLRLSCAASGRTFSFYAMGWYRPAPGKERELVAAISSGTRTYYADSVKGRFTISRDNAKNTFYLQMNSLKPEDTAVYYCAARPKWTASWYYYWGQGTQVTVSS”, the “polyreactivity (PSR sort gate)” value was “high polyreactivity”.
For “QVQLVESGGGLVQAGGSLRLSCAASGRTVNIYAMGWYRQAAGKERELVADISYSDGSTDYADSVKGRFTISRDNAKNTVYLQMNSLKPEDTAVYYCAAYYYYYYGFGQRYYSWGQGTQVTVSS”, the “polyreactivity (PSR sort gate)” value was “low polyreactivity”.
In the case of “QVQLVESGGGLVQAGGSLPLSIAASGRIFHIYAMGWYRQAPGKERELVAAISGSTSYADSVKGRFTISRDNAKNTVNLQMNSLKPEDKAVYYCAARALLPNGEYWGQGTQVTVSS”, the “polyreactivity (PSR sort gate)” value is reported as “low polyreactivity”.
For “QVQLVESGGGLVQAGGSLRLSCAASGRTFYSNAMGWYRQAPGKERELVAAISYNDGSTYYADSVKGRFTISRDNAKNTVYLQMNSLKPEDTAVYYCNADVGAWAWYTRYDYWGQGTQVTVSS”, the “polyreactivity (PSR sort gate)” value was “low polyreactivity”.
With “QVQLVDSGGGLVQAGGSLRLSCAASGSIFSVNAMGWYRQAPGKERQLVAAISVRGGRTYYADSVKGRFTISRDNAKNTVYLQMNSLIPEDTAVYYCATRISTVGRYDYWGQGTQVTVSS” the “polyreactivity (PSR sort gate)” value was “high polyreactivity”.
In the case of “QVPLVESGGGLVQAGGSLRLSCAASGLTFRDNAMGCSRQAPGKERELVAALSTNGGSTYYADSVTGRFTISRDNAKNTVYLQLNSLKPEDTALYVCAKSFLPQYPQVDSDYWGQGTQVTVSS”, the “polyreactivity (PSR sort gate)” value is reported as “low polyreactivity”.
For “QVQLVESGGGLVQAGGSLSLSCAAMGWYRQAPGKERELVATITWSGGSTYYADSVKGRFTISRDNAKNPVYLQMNSLKPEDTAVYYCNARATLLSPANTIRGYDYWGQGTQVTVSS”, the “polyreactivity (PSR sort gate)” value was “low polyreactivity”.
For “QVQLVESGGGLVQAGGSLRLSCAASGSIFEWYAMGWYRQAPGKVRELVADITYNGGSTYYADSVKGRFTISRDNAKNTVYLQMNSLKPEDTAVYYCAADYFVQVPDYYYASEYGYWGQGTQVTVSS”, the “polyreactivity (PSR sort gate)” value was “low polyreactivity”.
